The results in this text go back to publication PMC5890177, “Selective Detection of Lysozyme Biomarker Utilizing Large Area Chemical Vapor Deposition-Grown Graphene-Based Field-Effect Transistor”.

For the data set, the target named is lysozyme (chicken (egg white), UniProt P00698 19-147). In words: square wave voltammetry (electrochemical aptasensor); 0.01x PBS; peak current falls with lysozyme; 0.01x PBS (stock dilutions in 0.1 mM phosphate-buffered solution, pH 7.4), 30 min incubation, then rinse in 0.01x PBS and DI water; chip pretreated with Tween 20; binding temperature not stated. The settings on record: protein: commercial; label: methylene blue.
Chain of lysozyme (P00698 19-147): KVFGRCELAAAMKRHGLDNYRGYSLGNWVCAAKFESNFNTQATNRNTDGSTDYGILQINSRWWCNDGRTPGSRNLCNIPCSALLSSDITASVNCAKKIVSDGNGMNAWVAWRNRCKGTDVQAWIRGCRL

Consider ATCAGGGCTAAAGAGTGCAGAGTTACTTAG (ssDNA, thiol) [MB-labelled thiolated anti-lysozyme aptamer], for which the binding result was “binds”.
